Measurements: patent US20220033501A1 (SHANGHAI PHARMAEXPLORER, published 2022)

T1: murine TIM-3 extracellular domain protein with hFc tag (mTIM-3-hFc) (mouse, UniProt Q8VIM0 29-191)
T1 construct: also called mouse TIM-3 extracellular domain protein; not shown: human IgG Fc fragment (hFc) of the pCpC vector
T1 chain: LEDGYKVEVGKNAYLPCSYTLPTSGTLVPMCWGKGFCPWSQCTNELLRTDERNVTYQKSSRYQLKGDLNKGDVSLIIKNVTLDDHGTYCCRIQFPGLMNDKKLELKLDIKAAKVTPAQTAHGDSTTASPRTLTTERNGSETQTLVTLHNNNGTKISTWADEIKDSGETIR

T2: human TIM-3 on CHOK1 stable cell line (CHOK1-hTIM-3) (human, UniProt Q8TDQ0 22-301)
T2 sequence: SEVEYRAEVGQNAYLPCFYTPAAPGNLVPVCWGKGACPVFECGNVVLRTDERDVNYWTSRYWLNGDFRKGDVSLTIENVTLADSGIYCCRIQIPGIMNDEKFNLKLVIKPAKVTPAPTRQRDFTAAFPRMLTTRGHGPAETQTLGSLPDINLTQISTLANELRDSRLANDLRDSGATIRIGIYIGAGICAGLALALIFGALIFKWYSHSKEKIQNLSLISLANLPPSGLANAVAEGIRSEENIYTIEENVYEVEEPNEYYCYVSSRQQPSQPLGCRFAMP

T3: monkey TIM-3 extracellular domain protein with hFc tag (cTIM-3-hFc) (monkey)
T3 construct: not shown: human IgG Fc fragment (hFc) of the pCpC vector
T3 chain: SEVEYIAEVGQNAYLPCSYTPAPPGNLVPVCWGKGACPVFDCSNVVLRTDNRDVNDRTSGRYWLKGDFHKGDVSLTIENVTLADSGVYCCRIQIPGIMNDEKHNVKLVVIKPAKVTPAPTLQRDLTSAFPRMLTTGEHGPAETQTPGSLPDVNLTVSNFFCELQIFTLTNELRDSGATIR

T4: human TIM-3 extracellular domain protein with hFc tag (hTIM-3-hFc) (human, UniProt Q8TDQ0 22-200)
T4 construct: not shown: human IgG Fc fragment (hFc) of the pCpC vector
T4 sequence: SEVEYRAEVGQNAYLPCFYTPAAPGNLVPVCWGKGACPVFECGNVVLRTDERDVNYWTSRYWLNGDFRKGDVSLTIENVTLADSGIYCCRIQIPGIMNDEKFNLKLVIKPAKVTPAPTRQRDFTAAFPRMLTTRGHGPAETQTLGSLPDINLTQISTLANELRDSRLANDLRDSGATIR


Legend:
[1] = target: T1, murine TIM-3 extracellular domain …; test: ELISA, coated mouse TIM-3 ECD protein, 6.6667 nM antibody
[2] = target: T2, human TIM-3 on CHOK1 stable cell line …; test: FACS, CHOK1-hTIM-3 cells, 0.32 nM antibody
[3] = target: T3, monkey TIM-3 extracellular domain …; test: ELISA, coated monkey TIM-3 ECD protein, 0.0007 nM antibody
[4] = target: T1, murine TIM-3 extracellular domain …; test: ELISA, coated mouse TIM-3 ECD protein, 0.0067 nM antibody
[5] = target: T4, human TIM-3 extracellular domain …; test: ELISA, coated human TIM-3 ECD protein, 0.0001 nM antibody
[6] = target: T2, human TIM-3 on CHOK1 stable cell line …; test: FACS, CHOK1-hTIM-3 cells, 8 nM antibody

| OD450 [1] | Mean fluorescence intensity [2] | OD450 [3] | OD450 [4] | OD450 [5] | Mean fluorescence intensity [6] | Binder |
| --- | --- | --- | --- | --- | --- | --- |
| 0.44 | 76.9 | 0.19 | 0.24 | 0.09 | 219 | 34B6D8 fully human TIM-3 antibody (human IgG4, kappa) (antibody, V domains shown) VH: EVQLVESGGGLVQPGGSLRLSCAASGFTFSTYWMTWVRQAPGKRLEWVANIKQGGGDKYYVDSVKGRFTISTDNAKNSLYLQMNSLRAEDTAVYYCARGSNWFDPWGQGTLVTVSS VL: EIVMTQSPATLSMSPGERATLSCRASQSVYDNLAWYQQKPGQAPRLLIYGASTRATGIPARFSGSGSGTEFTLTISSLQSEDFALYYCQQYTHWPITFGQGTRLEIK |
| 0.41 | 73.1 | 0.18 | 0.23 | 0.08 | 234 | 39E5H1 fully human TIM-3 antibody (human IgG4, kappa) (antibody, V domains shown) VH: EVQLVESGGGLVQPGGSLRLSCAASGFTFSSYWMSWVRQAPGKGLEWVANIKRGGSERYYVDSVKGRFTISGDNAKNSVYLQMNSLRAEDTAVYYCARGSNWFDPWGQGTLVTVSS VL: ETVMTQSPAILSVSPGERATLSCRASQSVYSNLAWYQQKLGQAPRLLIYDASTRATGIPARFSGSGSGTEFTLTISSLQSEDFAVYYCQQYNNWPITFGQGTRLEIK |
